Experimental data taken from the supplement of paper PMC9170038.

Columns and labels:
[1] = tested on: MS2 coat protein; assay: apparent KD of MS2 coat protein; designed switch direction (-1 OFF switch, 1 ON switch): -1; higher = weaker reporter binding; details: Eterna round: R98
Description: (§1)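 RNA-MaP: designed FMN/MS2 RNA switches (84 nt design region) are transcribed on-chip within common flanks and titrated with SNAP-549-labelled MS2 coat protein (about 1-3000 nM) in 100 mM Tris pH 7.5, 80 mM KCl, 4 mM MgCl2, without or with 200 uM FMN. Median apparent KD per design; activation ratio = KD,OFF / KD,ON.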

[2] = tested on: MS2 coat protein; assay: apparent KD of MS2 coat protein; higher = weaker reporter binding; details: Eterna round: R101
Description: as §1

Sequence	apparent KD of MS2 coat protein ([1]; input ligand: FMN 200 uM) [nM]	apparent KD of MS2 coat protein ([1]; input ligand: none) [nM]	apparent KD of MS2 coat protein ([2]; input ligand: FMN 200 uM) [nM]	apparent KD of MS2 coat protein ([2]; input ligand: none) [nM]
CAGAUAAAAGUGAGGUCGUCGACAUGAGGAUCACCCAUGUACGAGGAUAUGUAAUAUACGGUAUAGCAGAAGGCGUAUGGGUGU [Edrageer]	120	30.5	–	–
ACAGGUCGUGAGAAGGAGAGUGGCACCGUCGAAAGACGGUGCAACUAGAAACCUAGAGGAUCACCCUAGGAUAUCACGACCUGA [#SharedSequence - IExNG2: 11] (puzzle (switch architecture): Inverted Exclusion NG 2)	–	–	6.46	6.32
CUUACUUUGUAGAAGGGUGACAUGAGGAUCACCCAUGUGCGUGGCCUGAAAGACCAGGGUACGCCACAGGAUAUACAAAGUAAG [Esatatina] (puzzle (switch architecture): Inverted Same State NG 2)	–	–	26.1	15.3
AAAGAUUUUUAAGGAUAUCAGUGGCAAAGCCACUGAGAAGGUGAGGAUCACCCACCUACGUGACCCUGGAAACAGGGUCACGAA [#SharedSequence - ExNG1-14] (puzzle (switch architecture): Exclusion NG 1)	–	–	14.7	13.2
GGCAGCCCUCAGAAGGGAGUGCGAUAAUCGCACUCAGGAUAUGAGGAUCACCCAUAUCAAGCUGCCACUGAGGCAAAGCCUCAG [#SharedSequence - IEx NG 1-1] (puzzle (switch architecture): Inverted Exclusion NG 1)	–	–	57.4	12.1
GUCCCUACAUGAGGAUCACCCAUGUGGGCAGUAAGAAGCCCACAGGAUAUGCGAAGGAGGACAUAGCAGAAGGGUGGUGUUUAG [Reaninveri] (puzzle (switch architecture): Same State NG 3)	–	–	138	625
GUCACGAAUGUAGGAUAUCGAGUGGAUAACACUCGAGAAGGACAUGAGGAUCACCCAUGUCAAAUGAAAGAUAAUAAACGUGAC [Exclsuion NG 1/3-B2]	20.6	15.8	–	–
GUCCCUACAUGAGGAUCACCCAUGUGGGCGGUAAGGAGCCCACAGGAUAUGCGAAGGAGGACAUAGCAGAAGGGUGGUGUUCAG [Erenerbe] (puzzle (switch architecture): Same State NG 3)	–	–	33.5	308
GUUAUCUCAUGUUCGACGGACAUGAGGAUCACCCAUGUACCUUAGGAUAUUGAUGAAAUAUGGCGCAAGAAGGAAGGUAACGCU [EternaBot964] (puzzle (switch architecture): Exclusion NG 3)	–	–	7.51	–
UAUAUAUAGGCAGGAUAUACAUGUAUAUAUAAUUUAUUAUAUAUUAUUACAUGAGGAUCACCCAUGUAGAAGGGCCAUAUUAUA [LRO037_Exclusion NG 2]	51.2	30.1	–	–
AGAUGACAAAGUCAUCUCGCUCUGACAUGAGGAUCACCCAUGUAGGAUAUAUUACUCAAAGAGUAAUAGAAGGACAUGUUUCUG [Ex NG2 #64]	65.5	36	–	–
GGUACUCAAAGAGUACCAAUACGAACAUGAGGAUCACCCAUGUAGGAUAUGCUACUCAAAGAGUAGCAGAAGGACAUGUGCCUA [OmeiMod 7 - Jieux - Exclusion NG 3]	422	38.7	–	–
ACACGUCGUGAGAAGGAGGAUCACCCUUUCGAAAGAAAUAGCCACCGUGAAAACGGUGGCAAAUCCUAGGAUAUCACGACGUGA [#SharedSequence - IExNG2: 4] (puzzle (switch architecture): Inverted Exclusion NG 2)	–	–	41.8	551
AAUAAUUCUCAAGGAUAUCAGUGGCAAAGCCACUGAGAAGGUGAGGAUCACCCACCUACGUGACGCUGGAAACAGCGUCACGAA [#SharedSequence ExNG1 - 34] (puzzle (switch architecture): Exclusion NG 1)	–	–	164	30.5
AAGAAGCUCACAGGAUAUCAGUAUAUGCUAUCUAGCGUAUUAAUGAACUGCUGAGAAGGGUGAGACAUGAGGAUCACCCAUGUA [Angeon] (puzzle (switch architecture): Small Loop Same State NG 1)	–	–	54	120
AAAUAAAUUGAAGGAUAUGACCCUCGAGGUGACUAAAAGUCACCUCGAGGGUCAGAAGGUCGAGGAUCACCCGACCUAAAUAAA [#SharedSequence SLExNG1: 4-1] (puzzle (switch architecture): Small Loop Exclusion NG 1)	–	–	8.19	7.16
UUGCUCAAUUGGGCAGGGACCUCACAUGAGGAUCACCCAUGUCAGGAUAUCCUAGUUUGGACGUAGGAGAAGGGACGGAGUAUC [Usanat]	250	167	–	–
